Laboratory results reported in US20220213153A1 (University of Washington, published 2022).
Values belong to the binder of their own block, whether it stands above or below them.

Experiments:
D2_Wm-01_truncB = target: T1, D2_Wm-01_truncB; assay: SEC and negative-stain EM of the two-component ring
T1 construct: D2_Wm-01B with one heptad deleted from the homodimer helices; also called component B of D2_Wm-01_trunc; D2-1_trunc
T1 chain: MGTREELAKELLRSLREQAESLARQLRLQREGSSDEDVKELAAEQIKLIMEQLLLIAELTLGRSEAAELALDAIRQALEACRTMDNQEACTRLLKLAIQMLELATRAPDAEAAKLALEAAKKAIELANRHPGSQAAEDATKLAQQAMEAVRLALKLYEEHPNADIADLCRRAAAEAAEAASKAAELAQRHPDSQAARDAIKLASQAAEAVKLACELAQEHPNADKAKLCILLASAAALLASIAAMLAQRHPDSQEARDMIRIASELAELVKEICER

D2_Wm-01B = target: T2, D2_Wm-01B; assay: Ni-NTA pulldown of bicistronically co-expressed components (one His-tagged), SDS-PAGE, SEC, SAXS
T2 construct: De novo designed component of the two-component D2 dihedral ring D2_Wm-01; untagged (only one component carries the 6xHis tag); also called component B of D2_Wm-01; D2-1
T2 chain: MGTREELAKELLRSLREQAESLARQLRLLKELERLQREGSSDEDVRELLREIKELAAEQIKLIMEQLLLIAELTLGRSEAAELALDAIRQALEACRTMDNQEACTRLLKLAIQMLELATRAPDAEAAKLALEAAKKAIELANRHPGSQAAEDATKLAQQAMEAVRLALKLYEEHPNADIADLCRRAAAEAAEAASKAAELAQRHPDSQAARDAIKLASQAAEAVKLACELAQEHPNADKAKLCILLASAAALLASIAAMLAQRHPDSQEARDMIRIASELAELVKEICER

D2_Wm-02B = target: T3, D2_Wm-02B; assay: as above
T3 construct: De novo designed component of the two-component D2 dihedral ring D2_Wm-02; also called component B of D2_Wm-02; D2-2
T3 chain: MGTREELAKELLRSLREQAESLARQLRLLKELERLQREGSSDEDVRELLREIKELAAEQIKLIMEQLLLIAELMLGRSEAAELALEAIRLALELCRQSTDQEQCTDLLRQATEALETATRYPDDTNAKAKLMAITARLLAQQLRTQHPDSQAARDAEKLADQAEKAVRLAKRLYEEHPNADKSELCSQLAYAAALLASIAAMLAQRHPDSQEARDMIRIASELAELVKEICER

binding result (D2_Wm-01_truncB): binds
B1: D2_Wm-01_truncA (designed binder)
chain: MGTREESLKEQLRSLREQAELAARLLRLQREGSSDEDVKELVAEIIKLIMEQLLLIAEQLLGRSEAAELALRAIRLALELCRQSTDLEECLRLLKTAIKALENALRHPDSTTAKARLMAITARLLAQQLRTQHPDSQAARDAEKLADQAERAVRLATRLYEEHPNAEISEMCSQAAYAAALMASIAAILAQRHPDSQIARDLIRLASELAEMVKRMCERGGSWGLEHHHHHH
notes: D2_Wm-01A with one heptad deleted from the homodimer helices; also called component A of D2_Wm-01_trunc; D2-1_trunc

binding result (D2_Wm-01B): binds
B2: D2_Wm-01A (designed binder)
chain: MGTREESLKEQLRSLREQAELAARLLRLLKELERLQREGSSDEDVRELLREIKELVAEIIKLIMEQLLLIAEQLLGRSEAAELALRAIRLALELCRQSTDLEECLRLLKTAIKALENALRHPDSTTAKARLMAITARLLAQQLRTQHPDSQAARDAEKLADQAERAVRLATRLYEEHPNAEISEMCSQAAYAAALMASIAAILAQRHPDSQIARDLIRLASELAEMVKRMCERGGSWGLEHHHHHH
notes: De novo designed component of the two-component D2 dihedral ring D2_Wm-01 (8 chains in all, 2 chains as the asymmetric unit); also called component A of D2_Wm-01; D2-1

binding result (D2_Wm-02B): binds
B3: D2_Wm-02A (designed binder)
chain: MGTREEIIRELARSLAEQAELTARLERSLREQERLQREGSSDEDVRELIREQKELVREILKLIAEQILLIAELLLASTRSEAAELALRAIRNAIEACKNADNEEMCRQLMRMAQNALELATQAPDAEAAKAALRAIDLAVELASRHPGSQAADDALKLAQQAAEAVKLALDLYREHPNADIADLCRKAAKEAAEAASKAAELAQRHPDSQAARDAIKLASQAAEAVKLACELAQEHPNAEIAKMCILAASAAALMASIAAILAQRHPDSQIARDLIRLASELAEMVKRMCERGGSWGLEHHHHHH
notes: De novo designed component of the two-component D2 dihedral ring D2_Wm-02; also called component A of D2_Wm-02; D2-2
